Assay results reported in patent US20170158755A1 (PROTHENA BIOSCIENCES, published 2017).

Target: T1, human MCAM-Fc fusion protein (human, UniProt P43121 24-559)
T1 construct: Made in house by fusing the extracellular domain of human MCAM to human IgG1, produced in CHO cells; also called hMCAM-Fc; not shown: human IgG1 (Fc part of the fusion)
T1 sequence: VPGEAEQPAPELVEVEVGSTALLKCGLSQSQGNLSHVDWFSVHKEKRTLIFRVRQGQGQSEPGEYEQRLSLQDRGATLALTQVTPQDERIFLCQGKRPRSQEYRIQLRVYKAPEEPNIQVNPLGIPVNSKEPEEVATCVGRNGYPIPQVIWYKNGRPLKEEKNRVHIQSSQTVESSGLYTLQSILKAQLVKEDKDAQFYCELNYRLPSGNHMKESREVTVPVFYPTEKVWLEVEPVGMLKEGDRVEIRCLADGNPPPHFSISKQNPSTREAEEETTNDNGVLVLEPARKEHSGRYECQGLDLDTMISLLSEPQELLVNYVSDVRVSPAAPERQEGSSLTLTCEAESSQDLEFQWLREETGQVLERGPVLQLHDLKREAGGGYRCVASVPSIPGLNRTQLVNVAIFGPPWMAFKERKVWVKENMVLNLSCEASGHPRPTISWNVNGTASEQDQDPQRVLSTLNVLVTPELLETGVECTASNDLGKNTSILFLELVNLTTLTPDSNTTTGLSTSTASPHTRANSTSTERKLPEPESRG
Test: ELISA, MCAM-Fc captured via goat anti-human Fab
Experimental: To determine the LAMA4 epitope(s)/domain(s) necessary for MCAM binding, recombinant MCAM-Fc (or Fc control) protein was prebound to plates via goat anti-human Fabs overnight. Truncated recombinant variants of the LAMA4 G domain (and Tau control protein) were assayed for their ability to bind MCAM-Fc protein as described in the Materials and Methods and as shown in FIG. 6. The results are presented in arbitrary units (A.U.) on the y-axis. […] Therefore, the LG1-3 modules of the G domain of LAMA4 mediate LAMA4-MCAM interactions.

binding result: no binding
B1: His-tagged recombinant LAMA4 G-domain variant with LG modules 4-5 (ligand)
chain: RNSHCHLSNSPRAIEHAYQYGGTANSRQEFEHLKGDFGAKSQFSIRLRTRSSHGMIFYVSDQEENDFMTLFLAHGRLVYMFNVGHKKLKIRSQEKYNDGLWHDVIFIRERSSGRLVIDGLRVLEESLPPTEATWKIKGPIYLGGVAPGKAVKNVQINSIYSFSGCLSNLQLNGASITSASQTFSVTPCFEGPMETGTYFSTEGGYVVLDESFNIGLKFEIAFEVRPRSSSGTLVHGHSVNGEYLNVHMKNGQVIVKVNNGIRDFSTSVTPKQSLCDGRWHRITVIRDSNVVQLDVDSEVNHVVGPLNPKPIDHREPVFVGGVPESLLTPRLAPSKPFTGCIRHFVIDGHPVSFSKAALVSGAVSINSCP
notes: also called LAMA4 variant containing the LG modules 4-5; LG4-5
